Target: T1, IL-10 receptor (IL-10R1 and IL-10R2 receptor chains) on mouse cells (mouse, UniProt Q61727 17-575; Q61190 20-349)
T1 sequence (looked up) 1: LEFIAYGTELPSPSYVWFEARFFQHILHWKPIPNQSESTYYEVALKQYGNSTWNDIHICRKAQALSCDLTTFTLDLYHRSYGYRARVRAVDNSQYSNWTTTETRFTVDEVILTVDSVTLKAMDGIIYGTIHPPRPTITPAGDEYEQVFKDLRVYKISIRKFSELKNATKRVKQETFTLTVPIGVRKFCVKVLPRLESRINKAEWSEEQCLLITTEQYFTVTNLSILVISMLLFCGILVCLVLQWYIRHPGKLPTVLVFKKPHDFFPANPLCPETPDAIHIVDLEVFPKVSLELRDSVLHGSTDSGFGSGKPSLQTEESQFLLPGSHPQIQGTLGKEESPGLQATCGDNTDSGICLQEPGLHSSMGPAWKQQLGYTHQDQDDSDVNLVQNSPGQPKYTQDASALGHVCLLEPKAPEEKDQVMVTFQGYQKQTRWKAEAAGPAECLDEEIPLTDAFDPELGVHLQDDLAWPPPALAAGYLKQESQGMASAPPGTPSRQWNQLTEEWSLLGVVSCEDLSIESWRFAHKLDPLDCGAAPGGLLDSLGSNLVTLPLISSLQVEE
T1 sequence (looked up) 2: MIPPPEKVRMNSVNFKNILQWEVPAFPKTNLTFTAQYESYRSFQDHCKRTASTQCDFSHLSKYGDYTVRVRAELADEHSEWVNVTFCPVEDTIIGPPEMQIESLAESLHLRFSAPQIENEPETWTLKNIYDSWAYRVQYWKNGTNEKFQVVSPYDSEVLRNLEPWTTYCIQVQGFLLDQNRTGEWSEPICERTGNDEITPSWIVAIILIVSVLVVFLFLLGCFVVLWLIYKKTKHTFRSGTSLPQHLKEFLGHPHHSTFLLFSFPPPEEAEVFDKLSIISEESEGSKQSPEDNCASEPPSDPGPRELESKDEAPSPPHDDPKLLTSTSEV
Assay: cell-based or functional assay

B1: Human wild-type IL-10 (wtIL-10) (ligand)
chain: SPGQGTQSENSCTHFPGNLPNMLRDLRDAFSRVKTFFQMKDQLDNLLLKESLLEDFKGYLGCQALSEMIQFYLEEVMPQAENQDPDIKAHVNSLGENLKTLRLRLRRCHRFLPCENKSKAVEQVKNAFNKLQEKGIYKAMSEFDIFINYIEAYMTMKIRN
EC50, proliferation of mouse mast cell line MC/9: 5 pM
IC50, inhibition of TNFα production in LPS-stimulated C57BL/6 mouse PBMCs (PBMC + LPS): 0.45 pM

Reference: US20190336582A1 (published 2019)
